Data as given in patent US20180142032A1.

Columns and labels:
[1] = molecular target: LAMP1::histag (human) (UniProt P11279); assay: competition ELISA; H4A3 0.06 mg/L read with anti-mouse IgG; competitor chMAb1 15 mg/L
[2] = molecular target: LAMP1::histag (human) (UniProt P11279); assay: competition ELISA; H4A3 0.06 mg/L read with anti-mouse IgG; competitor chMAb3 15 mg/L
[3] = molecular target: LAMP1::histag (human) (UniProt P11279); assay: SPR (BIAcore 2000)
[4] = molecular target: LAMP1::histag (human) (UniProt P11279); assay: competition ELISA; H4A3 0.06 mg/L read with anti-mouse IgG; competitor chMAb2 15 mg/L
[5] = molecular target: LAMP1::histag (human) (UniProt P11279); assay: SPR (BIAcore 2000), mAb captured by anti-Fc, LAMP1 injected 1 to 256 nM

LAMP1::histag (human), sequence (P11279 other isoform, or with tags, fused parts or gaps): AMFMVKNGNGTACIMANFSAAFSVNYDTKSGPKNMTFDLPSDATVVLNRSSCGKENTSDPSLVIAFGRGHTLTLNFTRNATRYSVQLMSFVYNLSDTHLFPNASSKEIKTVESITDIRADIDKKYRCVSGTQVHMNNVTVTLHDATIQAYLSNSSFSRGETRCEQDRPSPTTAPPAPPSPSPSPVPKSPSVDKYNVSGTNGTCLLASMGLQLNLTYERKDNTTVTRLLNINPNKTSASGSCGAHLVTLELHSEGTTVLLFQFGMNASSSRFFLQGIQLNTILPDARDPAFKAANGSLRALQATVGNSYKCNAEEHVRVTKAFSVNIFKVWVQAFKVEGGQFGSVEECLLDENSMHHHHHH

percentage of signal compared to mAb control alone [1]: 98%
percentage of signal compared to mAb control alone [2]: 11%
Kd [3]: 100 nM
percentage of signal compared to mAb control alone [4]: 57%
Kd [5]: 105 nM
koff [5]: 0.00609 s⁻¹
kon [5]: 58000 M⁻¹ s⁻¹
Substance: H4A3 (BioLegend 328602) (antibody)
